Measurements as given in US20140302043A1.

How the values were obtained:
Test in all cases: cell-based or functional assay
[1] = biological target: hemagglutinin (HA) of H1N1 virus strain A/Neimenggu/52/2002 (influenza A virus H1N1, A/Neimenggu/52/2002)
[2] = biological target: hemagglutinin (HA) of H1N1 virus strain A/New Caledonia/22/1999 (influenza A virus H1N1, A/New Caledonia/22/1999)
[3] = biological target: hemagglutinin (HA) of H1N1 virus strain A/Florida/2/1993 (influenza A virus H1N1, A/Florida/2/1993)
[4] = biological target: hemagglutinin (HA) of H1N1 virus strain A/Canada/59/2004 (influenza A virus H1N1, A/Canada/59/2004)
[5] = biological target: hemagglutinin (HA) of H1N1 virus strain A/Shengzhen/227/1995 (influenza A virus H1N1, A/Shengzhen/227/1995)
[6] = biological target: hemagglutinin (HA) of H1N1 virus strain A/Fujian/156/2000 (influenza A virus H1N1, A/Fujian/156/2000)
[7] = biological target: hemagglutinin (HA) of H1N1 virus strain A/Shanghai/2/1997 (influenza A virus H1N1, A/Shanghai/2/1997)
[8] = biological target: hemagglutinin (HA) of H1N1 virus strain A/Beijing/262/1995 (influenza A virus H1N1, A/Beijing/262/1995)
[9] = biological target: hemagglutinin (HA) of H1N1 virus strain A/Moscow/13/1998 (influenza A virus H1N1, A/Moscow/13/1998)
[10] = biological target: hemagglutinin (HA) of H1N1 virus strain A/Solomon islands/03/2006, on virus (influenza A virus H1N1, A/Solomon Islands/03/2006)
[11] = biological target: hemagglutinin (HA) of H1N1 virus strain A/Johannesburg/159/1997 (influenza A virus H1N1, A/Johannesburg/159/1997)
[12] = biological target: hemagglutinin (HA) of H1N1 virus strain A/Kawasaki/6/1986 (influenza A virus H1N1, A/Kawasaki/6/1986)
[13] = biological target: hemagglutinin (HA) of H1N1 virus strain A/Chile/8885/2001 (influenza A virus H1N1, A/Chile/8885/2001)
[14] = biological target: hemagglutinin (HA) of H1N1 virus strain A/USSR/90/1977 (influenza A virus H1N1, A/USSR/90/1977)
[15] = biological target: hemagglutinin (HA) of H1N1 virus strain A/Auckland/65/2001 (influenza A virus H1N1, A/Auckland/65/2001)
[16] = biological target: hemagglutinin (HA) of H1N1 virus strain A/Bangkok/163/2000 (influenza A virus H1N1, A/Bangkok/163/2000)
[17] = biological target: hemagglutinin (HA) of H1N1 virus strain A/Brisbane/59/2007 (influenza A virus H1N1, A/Brisbane/59/2007)
[18] = biological target: hemagglutinin (HA) of H1N1 virus strain A/Ostrava/801/1998 (influenza A virus H1N1, A/Ostrava/801/1998)

Substance | mAb minimum effective concentration (EC99, microneutralization on MDCK cells) [1] [µg/mL] | mAb minimum effective concentration (EC99, microneutralization on MDCK cells) [2] [µg/mL] | mAb minimum effective concentration (EC99, microneutralization on MDCK cells) [3] [µg/mL] | mAb minimum effective concentration (EC99, microneutralization on MDCK cells) [4] [µg/mL] | mAb minimum effective concentration (EC99, microneutralization on MDCK cells) [5] [µg/mL] | mAb minimum effective concentration (EC99, microneutralization on MDCK cells) [6] [µg/mL] | mAb minimum effective concentration (EC99, microneutralization on MDCK cells) [7] [µg/mL] | mAb minimum effective concentration (EC99, microneutralization on MDCK cells) [8] [µg/mL] | mAb minimum effective concentration (EC99, microneutralization on MDCK cells) [9] [µg/mL] | mAb minimum effective concentration (EC99, microneutralization on MDCK cells) [10] [µg/mL] | mAb minimum effective concentration (EC99, microneutralization on MDCK cells) [11] [µg/mL] | mAb minimum effective concentration (EC99, microneutralization on MDCK cells) [12] [µg/mL] | mAb minimum effective concentration (EC99, microneutralization on MDCK cells) [13] [µg/mL] | mAb minimum effective concentration (EC99, microneutralization on MDCK cells) [14] [µg/mL] | mAb minimum effective concentration (EC99, microneutralization on MDCK cells) [15] [µg/mL] | mAb minimum effective concentration (EC99, microneutralization on MDCK cells) [16] [µg/mL] | mAb minimum effective concentration (EC99, microneutralization on MDCK cells) [17] [µg/mL] | mAb minimum effective concentration (EC99, microneutralization on MDCK cells) [18] [µg/mL]
mAb CH67 (antibody) | 0.098 | 0.195 | 0.012 | 0.098 | 0.024 | 0.049 | 0.195 | 0.098 | 0.012 | 0.098 | 0.39 | 0.39 | 0.098 | 25 | 0.098 | 0.098 | 0.98 | –
mAb CH65, recombinant intact IgG1 (antibody) | 0.098 | 0.391 | 0.012 | 0.098 | 0.012 | 0.488 | 0.195 | 0.098 | 0.012 | 0.024 | 0.098 | 0.098 | 0.195 | 100 | 0.195 | 0.195 | 0.098 | 12.5
